# Laboratory results: US20210163581A1 (ALAMAB THERAPEUTICS, published 2021)
# T1: FcγRIIa (UniProt P12318 36-218, limits assumed)
# T1 construct: also called FCRIIa
# T1 sequence (looked up): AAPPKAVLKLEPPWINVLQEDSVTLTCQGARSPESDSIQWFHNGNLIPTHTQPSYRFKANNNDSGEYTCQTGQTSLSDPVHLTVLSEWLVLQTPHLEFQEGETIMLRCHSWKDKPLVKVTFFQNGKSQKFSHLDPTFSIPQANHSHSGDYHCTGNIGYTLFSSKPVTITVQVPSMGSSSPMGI
# Columns and labels:
# [1] = target: T2, Cx43 (peptide used in the Biacore affinity assay of Example 1); assay: SPR Biacore T200, antibody and Cx43 peptide; format and peptide not given
# T2 construct: also called connexin 43; PEP1 (914)
# C1q [2] = target: T3, C1q (UniProt P02745 23-245; P02746 28-253; P02747 29-245); assay: ELISA, antibody coated at 3 µg/mL, C1q titrated
# T3 construct: also called Clq
# T3 sequence (P02745 23-245, chain 1 of 3): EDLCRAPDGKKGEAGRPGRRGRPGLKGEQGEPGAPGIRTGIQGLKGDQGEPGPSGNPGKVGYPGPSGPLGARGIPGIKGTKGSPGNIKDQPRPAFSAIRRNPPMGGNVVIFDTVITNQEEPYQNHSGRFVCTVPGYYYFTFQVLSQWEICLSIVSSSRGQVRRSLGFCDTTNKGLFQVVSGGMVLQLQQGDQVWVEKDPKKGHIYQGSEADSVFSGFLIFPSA
# T3 sequence (P02746 28-253, chain 2 of 3): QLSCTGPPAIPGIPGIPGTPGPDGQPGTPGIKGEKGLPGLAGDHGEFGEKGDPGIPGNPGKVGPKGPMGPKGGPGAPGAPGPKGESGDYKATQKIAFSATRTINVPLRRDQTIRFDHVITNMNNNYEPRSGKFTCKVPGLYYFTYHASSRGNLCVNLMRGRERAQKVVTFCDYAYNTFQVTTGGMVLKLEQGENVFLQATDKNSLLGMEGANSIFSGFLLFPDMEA
# T3 sequence (P02747 29-245, chain 3 of 3): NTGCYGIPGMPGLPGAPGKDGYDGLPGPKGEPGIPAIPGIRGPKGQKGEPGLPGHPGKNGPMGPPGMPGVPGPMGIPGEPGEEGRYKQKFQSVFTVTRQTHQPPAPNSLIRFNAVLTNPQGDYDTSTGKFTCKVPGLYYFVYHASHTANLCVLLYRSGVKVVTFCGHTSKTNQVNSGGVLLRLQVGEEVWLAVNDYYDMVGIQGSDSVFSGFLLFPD
# Experimental: (§1) Plates (Nunc) were coated with antibodies at 3 μg/mL overnight at 4° C. After blocking and washing, Clq was half-log titrated in blocking buffer (600, 189.75, 60.01, 18.98, 6.00, 1.90, 0.60, 0.19, 0.06 and 0.02 μg/mL) and incubated at room temperature for 2 h. The plates were then washed and subsequently incubated with secondary antibody Sheep anti-human Clq Ab-HRP for 1 h. After washing, TMB substrate was added and the interaction was stopped by 2M HCl.
# human FcRn = target: T4, human FcRn (human, UniProt P55899 24-297; P61769 21-119); assay: SPR Biacore 8K, antibody amine-coupled to CM5, FcRn as analyte, pH 6.0, steady state affinity fit
# T4 construct: The b2m chain is my addition
# T4 sequence (P55899 24-297 limits assumed, chain 1 of 2): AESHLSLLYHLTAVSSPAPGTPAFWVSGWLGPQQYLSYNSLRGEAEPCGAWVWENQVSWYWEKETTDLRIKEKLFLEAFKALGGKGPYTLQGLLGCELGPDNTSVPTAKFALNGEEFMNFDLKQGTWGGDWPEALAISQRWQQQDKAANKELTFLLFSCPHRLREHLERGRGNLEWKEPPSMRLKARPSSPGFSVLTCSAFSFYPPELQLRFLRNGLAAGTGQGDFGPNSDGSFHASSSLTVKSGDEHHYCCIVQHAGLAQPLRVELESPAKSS
# T4 sequence (P61769 21-119 limits assumed, chain 2 of 2): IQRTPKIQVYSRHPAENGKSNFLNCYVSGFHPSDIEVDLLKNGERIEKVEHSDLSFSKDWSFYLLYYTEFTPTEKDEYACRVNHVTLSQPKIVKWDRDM
# Experimental: The activator was prepared by mixing 400 mM EDC and 100 mM NHS (GE) immediately prior to injection. The CM5 sensor chip was activated for 420 s with the mixture at a flow rate of 10 μL/min. 5 μg/mL of antibodies in 10 mM NaAc (pH 5.5) were then injected to Fc2 of channel 1-8 respectively at a flow rate of 10 μL/min for 60 s. The relative Fc1 was blocked. The chip w as deactivated by 1 M ethanolamine-HCl (GE) at a flow rate of 10 μL/min for 420 s.
# Analyte FcRn was injected to channel 1-8 respectively. 8 concentrations of FcRn (0, 93.75, 187.5, 375, 750, 1500, 3000 and 6000 nM) were monitored at a flow rate of 30 μL/min for an association phase of 60 s, followed by 90 s dissociation. After each cycle of interaction analysis, the sensor chip surface was regenerated with 1×PBS (pH 7.4) at a flow rate of 10 μL/min for 30 s.
# Surface channels Fc1 without immobilized antibodies were used as control surface for reference subtraction. Final data of each interaction was deducted from reference channel and buffer channel data.
# CD64 [3] = target: T5, CD64 (UniProt P12314 16-288); assay: SPR Biacore 8K, CD64 captured by anti-His antibody, antibody as analyte, 1:1 binding fit
# T5 construct: also called FCRI
# T5 sequence (P12314 16-288 limits assumed): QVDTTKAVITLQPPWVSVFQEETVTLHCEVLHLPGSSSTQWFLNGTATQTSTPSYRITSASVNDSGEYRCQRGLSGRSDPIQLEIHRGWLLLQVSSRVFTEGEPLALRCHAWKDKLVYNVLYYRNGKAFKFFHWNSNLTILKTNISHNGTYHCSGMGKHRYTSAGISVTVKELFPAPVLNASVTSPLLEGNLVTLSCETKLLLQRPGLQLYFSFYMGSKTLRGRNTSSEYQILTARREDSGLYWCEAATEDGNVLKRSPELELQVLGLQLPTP
# Experimental: 2 μg/mL CD64 in running buffer (1×HBS-EP+) was injected to Fc2 of channel 1-4 at a flow rate of 10 μL/min for 30 s. 6 concentrations (40, 20, 10, 5, 2.5 and 1.25 nM) of analyte 20170905-Ab #C-02, 20170905-Ab #D-02, 20170908-Ab #G-02, 20170920-Ab #H-02 and running buffer were injected orderly to Fc1-Fc2 of channel 1-4 at a flow rate of 30 μL/min for an association phase of 180, followed by 400 dissociation. Repeat 6 cycles of capturing ligand and running analyte according to analyte concentrations in ascending order. 10 mM glycine pH 1.5 as regeneration buffer was injected following every dissociation phase.
# (§2) Surface channels Fc1 without capturing ligand was used as control surface for reference subtraction. Final data of each interaction w as deducted from reference channel and buffer channel data. The experimental data of 20170905-Ab #C-02, 20170905-Ab #D-02, 20170908-Ab #G-02, 20170920-Ab #H-02 binding to CD64 was fitted by 1:1 binding mode. The 10240 nM curves of analyte 20170907-Ab #K-02, 20170908-Ab #L-02, 20170915-Ab #O-02, 20170919-Ab #P-02, 20170919-Ab #S-02 and 20170920-Ab #T-02 were removed to allow a better fit.
# C1q [4] = target: T3, C1q; assay: ELISA, antibody coated at 3 µg/mL, C1q titrated, anti-human C1q-HRP detection
# Experimental: as §1
# FcγRIIa = target: T1, FcγRIIa; assay: SPR Biacore 8K, receptor captured by anti-His antibody, antibody as analyte, steady state affinity fit; unit inferred
# Experimental: 1 μg/mL FcγRIIa, FcγRIIb, FcγRIIIa, or FcγRIIIb in running buffer (1×HBS-EP+) was injected to Fc2 of channel 1-8 at a flow rate of 10 μL/min for 15 s. Analytes were injected to channel 1-8 respectively. A series of analyte concentrations (seeing Table 3 below) were monitored at a flow rate of 30 μL/min for an association phase of 60 s, followed by 90 s dissociation. 10 mM glycine pH 1.5 as regeneration buffer was injected following every dissociation phase.
# Surface channels Fc1 without capturing ligand was used as control surface for reference subtraction. Final data of each interaction was deducted from reference channel and buffer channel data. The experimental data of antibodies binding to FcγRIIa, FcγRIIb, FcγRIIIa, and FcγRIIIb was fitted by steady state affinity mode and shown in Table 4 below.
# CD64 [5] = target: T5, CD64; assay: SPR Biacore 8K, CD64 captured by anti-His antibody, antibody as analyte, steady state affinity fit
# Experimental: (§3) 2 μg/mL CD64 in running buffer (1×HBS-EP+) was injected to Fc2 of channel 1-6 at a flow rate of 10 μL/min for 30 s. […] Repeat 8 cycles of capturing ligand and running analyte according to analyte concentrations in ascending order. 10 mM glycine pH 1.5 as regeneration buffer was injected following every dissociation phase.
# as §2
# CD64 [6] = target: T5, CD64; assay: SPR Biacore 8K, CD64 captured by anti-His antibody, antibody as analyte, steady state affinity fit; steady state affinity fit; no ka/kd
# Experimental: as §3, §2
Binder,Kd [1],binding result (C1q [2]),Kd (human FcRn),Kd (CD64 [3]),koff (CD64 [3]),kon (CD64 [3]),Kd (C1q [4]),Kd (FcγRIIa),Kd (CD64 [5]),Kd (CD64 [6])
"Ab#H (antibody, human IgG4 S228P, kappa, also called 20170920-Ab #H-02; Mab H) heavy: not shown light: DVVMTQSPLSLPVTIGQPASISCKSSQSLLESDGKTYLNWLQQRPGQSPRRLIYLVSKLDSGVPDRFSGSGSGTDFTLKISRVEAEDVGVYYCWQGTHFPWTFGGGTKVEIKRTVAAPSVFIFPPSDEQLKSGTASVVCLLNNFYPREAKVQWKVDNALQSGNSQESVTEQDSKDSTYSLSSTLTLSKADYEKHKVYACEVTHQGLSSPVTKSFNRGEC",46.5 nM,no binding,2610 nM,5.73 nM,0.00318 s⁻¹,554000 M⁻¹ s⁻¹,–,–,–,–
"Ab#D (antibody, human IgG1, kappa, Light chain tie is indirect; also called 20170905-Ab #D-02) heavy: not shown light: DVVMTQSPLSLPVTIGQPASISCKSSQSLLESDGKTYLNWLQQRPGQSPRRLIYLVSKLDSGVPDRFSGSGSGTDFTLKISRVEAEDVGVYYCWQGTHFPWTFGGGTKVEIKRTVAAPSVFIFPPSDEQLKSGTASVVCLLNNFYPREAKVQWKVDNALQSGNSQESVTEQDSKDSTYSLSSTLTLSKADYEKHKVYACEVTHQGLSSPVTKSFNRGEC",198 nM,–,2250 nM,1.92 nM,0.000925 s⁻¹,482000 M⁻¹ s⁻¹,75 nM,3390 nM,–,–
"Ab#P (antibody, human IgG4 S228P, kappa) heavy: not shown light: DVVMTQSPLSLPVTIGQPASISCKSSQSLLESDGKTYLNWLQQRPGQSPRRLIYLVSKLDSGVPDRFSGSGSGTDFTLKISRVEAEDVGVYYCWQGTHFPWTFGGGTKVEIKRTVAAPSVFIFPPSDEQLKSGTASVVCLLNNFYPREAKVQWKVDNALQSGNSQESVTEQDSKDSTYSLSSTLTLSKADYEKHKVYACEVTHQGLSSPVTKSFNRGEC",8.58 nM,no binding,2550 nM,–,–,–,–,–,2790 nM,–
"Ab#L (antibody, human IgG1, kappa, L234A L235A, also called 20170908-Ab #L-02) heavy: not shown light: DVVMTQSPLSLPVTIGQPASISCKSSQSLLESDGKTYLNWLQQRPGQSPRRLIYLVSKLDSGVPDRFSGSGSGTDFTLKISRVEAEDVGVYYCWQGTHFPWTFGGGTKVEIKRTVAAPSVFIFPPSDEQLKSGTASVVCLLNNFYPREAKVQWKVDNALQSGNSQESVTEQDSKDSTYSLSSTLTLSKADYEKHKVYACEVTHQGLSSPVTKSFNRGEC",10.1 nM,–,2600 nM,–,–,–,–,–,–,1620 nM
"Ab#T (antibody, human IgG4 S228P, kappa, F234A L235A, also called 20170920-Ab #T-02) heavy: not shown light: DVVMTQSPLSLPVTIGQPASISCKSSQSLLESDGKTYLNWLQQRPGQSPRRLIYLVSKLDSGVPDRFSGSGSGTDFTLKISRVEAEDVGVYYCWQGTHFPWTFGGGTKVEIKRTVAAPSVFIFPPSDEQLKSGTASVVCLLNNFYPREAKVQWKVDNALQSGNSQESVTEQDSKDSTYSLSSTLTLSKADYEKHKVYACEVTHQGLSSPVTKSFNRGEC",0.582 nM,no binding,2560 nM,–,–,–,–,–,3050 nM,–
